Biological target: T1, OxyR (Pseudomonas aeruginosa (PAO1?)) (UniProt Q9HTL4)
T1 sequence: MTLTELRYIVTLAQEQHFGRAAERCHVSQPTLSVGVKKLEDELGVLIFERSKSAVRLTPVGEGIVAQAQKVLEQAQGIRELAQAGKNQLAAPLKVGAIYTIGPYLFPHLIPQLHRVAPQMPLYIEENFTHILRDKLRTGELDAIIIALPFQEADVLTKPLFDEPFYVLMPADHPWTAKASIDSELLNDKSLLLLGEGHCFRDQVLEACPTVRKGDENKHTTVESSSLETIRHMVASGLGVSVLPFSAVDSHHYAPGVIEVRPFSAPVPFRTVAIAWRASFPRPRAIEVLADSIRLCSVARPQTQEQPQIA
Experiment: DNase I footprinting
Conditions: Footprint: 20 mM Tris-HCl pH 7.0, 50 mM KCl, 1 mM EDTA, 5% glycerol, 50 ug/ml BSA, 5 ug/ml calf thymus DNA, 0.5 ug/ml poly(dI-dC), 25 C, 15 min; EMSA: Roche …

## CAGGCGCTCGGCGGCGCGGGTGAAACTGCCTTCGCGGGCGACGGCGTCGAAGGCGCGGAGCTGGAAGAGATTCATGGTATCGGCCTGGCTTATGGCTGGCATCGGAACAAACAATTTGAACGATAGTAGCGCGGCGCTCACCTTATGTCTCCAGGCTTCCCTGGAACGCCGGCGCGGAACGACCGCCCGGACCGCGAAG (double strand) [phnW promoter 199-bp fragment (footprint)]
  binding: binds

Reference: article PMC5720770
